Source: patent US5489670A, “Human uroguanylin” (G. D. Searle & Co., priority 1993, dated 1996)
No end group written: not given here.

What was measured:
GC-C in T84 cells = molecular target: T1, GC-C in T84 cells (Homo sapiens, UniProt P25092); assay: Cyclic GMP accumulation in T84 cells; type: cell-based; conditions: for bioactivity of purified urine peaks in T84 cell cyclic GMP bioassay: peptides purified from human urine, microbore HPLC C8
T1 construct: host or cells: T84 human colon carcinoma cells
Procedure: (§1) FIG. 3(a) and (b). FIG. 3(a) Concentration-response effect of synthetic human uroguanylin, human guanylin and E. coli ST5-18 (STa) on cyclic GMP levels in T84 cells. The cells were incubated with various concentrations of ligands for 30 min. Values represent mean±SE (n=4). FIG. 3(b) Displacement of ^125 I-STa specific binding from T84 cells by human uroguanylin, human guanylin and STa. Cells were incubated for 30 min at 37° C. with labeled STa and indicated concentrations of ligands. Specific binding (%) was determined by dividing the specifically bound ^125 I-STa at each ligand concentration by the specifically bound ^125 I-STa in the absence of ligands. Each determination represents the mean of four wells examined.
Cell Culture. A cultured human colon carcinoma cell line (T84) was obtained from the American Type Culture Collection (Rockville, Maryland) (ATCC No. CCL 248) at passage 52. Cells were grown to confluency in 24-well culture plates with a 1:1 mixture of Ham's F12 medium and Dulbecco's modified Eagle's medium (DMEM), supplemented with 10% fetal calf serum, 100 IU/ml penicillin, and 100 μg/ml streptomycin. Cells were used at passages 54-60.
Cyclic GMP determination. Monolayers of T84 cells in 24-well plates were washed twice with 1 ml/well DMEM, then incubated at 37° C. for 10 min with 0.5 ml DMEM containing 1 mM isobutylmethylxanthine, a phosphodiesterase inhibitor. Agents and fractions were then added for the indicated time as described in the results section, below. The media was then aspirated and the reaction terminated by the addition of ice cold 0.5 ml of 0.1N HC1. Aliquots were then evaporated to dryness under nitrogen and then resuspended in 5 mM sodium acetate buffer, pH 6.4. The samples were then measured for cyclic GMP by conventional RIA as described by Steiner et al. (13).

rat proximal colon = assay: Short-circuit current (Isc) in rat proximal colon, Ussing chamber; conditions: 0.2 μM, mucosal addition
Procedure: FIG. 4. Effect of synthetic human uroguanylin on short-circuit current (Isc) of rat colon. Effect of human uroguanylin (0.2 μM) on Isc across rat proximal colon after a mucosal addition. The response is characteristic of results from 3 other experiments.
Measurement of Short-Circuit Current (ISc) in Rat Colon. Rat proximal colon tissue, consisting of only mucosa and submucosa, was mounted between two Ussing half-chambers and bathed on both sides similar to previously reported (3). Electrical measurements were monitored with an automatic voltage clamp, and direct connecting voltage-and current-passing electrodes were used to measure trans epithelial potential difference and Isc. Tissues were equilibrated under short-circuit conditions until Isc had stabilized.

receptors on T84 cells = molecular target: T2, receptors on T84 cells (Homo sapiens, UniProt P25092); assay: 125I-ST radioligand competitive binding assay on T84 cells; conditions: 30 min at 37° C., pH 5.5
T2 construct: host or cells: T84 human colon carcinoma cells
Procedure: as §1
Radioligand Binding Assay. ^125 I-labeled ST5-18 (^125 I-ST) was prepared by the Iodo-Gen method as previously described (3). T84 cell monolayers were washed two times with 1.0 ml per well of ice-cold binding assay buffer (Earle's medium containing 25 mM 2[N-Morpholino]ethanesulfonic acid (MES), pH 5.5). The cells were incubated for 30 min at 37° C. in 0.5 ml per well of binding assay buffer with ^125 I-ST (100,000 cpm per well) and unlabeled peptides. […] This volume was transferred to tubes and assayed for radioactivity by a multigamma counter. Results are expressed as the percentage specifically bound.

T1 sequence (P25092 24-1073): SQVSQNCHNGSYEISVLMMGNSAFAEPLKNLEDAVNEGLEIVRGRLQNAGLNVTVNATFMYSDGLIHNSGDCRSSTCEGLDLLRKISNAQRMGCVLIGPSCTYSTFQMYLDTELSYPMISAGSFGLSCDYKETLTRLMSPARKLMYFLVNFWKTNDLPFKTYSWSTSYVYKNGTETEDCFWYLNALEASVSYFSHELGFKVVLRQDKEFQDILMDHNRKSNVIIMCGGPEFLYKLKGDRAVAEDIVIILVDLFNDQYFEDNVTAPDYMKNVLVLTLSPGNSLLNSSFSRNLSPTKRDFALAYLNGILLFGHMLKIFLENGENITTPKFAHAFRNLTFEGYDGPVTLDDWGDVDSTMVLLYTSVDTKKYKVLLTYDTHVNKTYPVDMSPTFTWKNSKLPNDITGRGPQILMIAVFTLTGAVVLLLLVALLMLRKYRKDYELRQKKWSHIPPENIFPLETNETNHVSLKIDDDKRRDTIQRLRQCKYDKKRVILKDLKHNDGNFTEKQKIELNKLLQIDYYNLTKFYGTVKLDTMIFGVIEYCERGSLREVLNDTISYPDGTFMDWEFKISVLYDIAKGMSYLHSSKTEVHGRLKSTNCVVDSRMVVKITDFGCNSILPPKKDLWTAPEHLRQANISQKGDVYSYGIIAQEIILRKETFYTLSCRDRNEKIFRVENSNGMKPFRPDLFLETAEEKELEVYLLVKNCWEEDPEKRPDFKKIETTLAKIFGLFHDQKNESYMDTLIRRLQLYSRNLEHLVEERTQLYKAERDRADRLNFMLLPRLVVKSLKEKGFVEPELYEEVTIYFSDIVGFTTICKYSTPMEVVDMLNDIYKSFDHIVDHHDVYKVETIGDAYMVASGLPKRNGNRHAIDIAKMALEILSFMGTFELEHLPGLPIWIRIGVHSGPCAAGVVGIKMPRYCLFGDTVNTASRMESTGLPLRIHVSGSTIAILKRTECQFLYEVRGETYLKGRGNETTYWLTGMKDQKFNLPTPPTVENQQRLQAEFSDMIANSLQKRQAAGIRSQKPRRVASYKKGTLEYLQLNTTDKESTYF
T2 sequence (P25092 24-1073): as above

NDDCELCVNVACTGCL [human uroguanylin, sedecapeptide, endogenous regulator of intestinal guanylate cyclase, isolated from human urine and chemically synthesized]
effect on T84 cell cyclic GMP levels (GC-C in T84 cells; T84 cells, 30 min incubation with ligand, 1 mM isobutylmethylxanthine): concentration-dependent increase | relative potency for activation of GC-C in T84 cells (GC-C in T84 cells; T84 cells, cyclic GMP, concentration-response): more potent than human guanylin, but less potent than ST | bioactivity of purified urine peaks in T84 cell cyclic GMP bioassay (GC-C in T84 cells): bioactive | effect on short-circuit current (Isc) of rat proximal colon (rat proximal colon): sustained rise in Isc

DDCELCVNVACTGCL [peak 2, peptide from human urine lacking the N-terminal asparagine, likely a degradation product of peak 1]
bioactivity of purified urine peaks in T84 cell cyclic GMP bioassay (GC-C in T84 cells): bioactive

human guanylin: first known endogenous activator of intestinal guanylate cyclase (PGTCEICAYAACTGC; ends and bridges not checked; cysteine pairing not given here; UniProt Q02747 101-115, looked up)
relative affinity, displacement of 125I-ST5-18 specific binding from T84 cells (receptors on T84 cells): much lower affinity
